No end group written: not given here.
Tests used:
NPR-10B = NPR-10B (C. elegans); assay: cell-based or functional assay
FRPR-16 = FRPR-16 (C. elegans); assay: cell-based or functional assay

Binder	EC50 of receptor activation (aequorin calcium luminescence, transfected CHO-K1/Galpha16 cells) (NPR-10B)	EC50 of receptor activation (aequorin calcium luminescence, transfected CHO-K1/Galpha16 cells) (FRPR-16)
EAEEPLGTMRF-NH2 [FLP-3-3 (EAEEPLGTMRFamide)]	867 nM	288 nM
TPLGTMRF-NH2 [FLP-3-2 (TPLGTMRFamide)]	366 nM	31.7 nM
SADDSAPFGTMRF-NH2 [FLP-3-8 (SADDSAPFGTMRFamide)]	–	1600 nM
SAEPFGTMRF-NH2 [FLP-3-7 (SAEPFGTMRFamide)]	439 nM	39.5 nM
SPLGTMRF-NH2 [FLP-3-1 (SPLGTMRFamide)]	262 nM	7.4 nM
NPLGTMRF-NH2 [FLP-3-4 (NPLGTMRFamide)]	427 nM	10.7 nM
NPENDTPFGTMRF-NH2 [FLP-3-9 (NPENDTPFGTMRFamide)]	760 nM	88.3 nM
ASEDALFGTMRF-NH2 [FLP-3-5 (ASEDALFGTMRFamide)]	1100 nM	72.1 nM

Reference: patent US20220380430A1 (WORCESTER POLYTECHNIC INSTITUTE, published 2022)
